Molecular target: TDP43 (natively folded full-length, ab224788) (UniProt Q13148 1-414)
Experiment: ELISA (immobilized miRNA titration, EC50); 5 nM TDP43; AC/TG nonspecific oligo 1 ug/ml; EMSA: 14 mM Tris pH 8.0, 35 mM KCl, 14 mM NaCl, 1.4 mM MgCl2, 14% glycerol, 0.7 mM DTT, 30 min RT, 5 nM RNA, gel at 4 C; ELISA: 20 mM HEPES pH 7.5, 150 mM NaCl, 1.5 mM MgCl2, 0.05% Tween 20, 0.5 mM DTT, 1 ug/ml AC/TG oligo, 0.2% BSA, 12 h 4 C
Settings: protein: commercial; label: 3'-biotin; single strand

Sequence of TDP43 (natively folded full-length, ab224788) (Q13148 whole entry): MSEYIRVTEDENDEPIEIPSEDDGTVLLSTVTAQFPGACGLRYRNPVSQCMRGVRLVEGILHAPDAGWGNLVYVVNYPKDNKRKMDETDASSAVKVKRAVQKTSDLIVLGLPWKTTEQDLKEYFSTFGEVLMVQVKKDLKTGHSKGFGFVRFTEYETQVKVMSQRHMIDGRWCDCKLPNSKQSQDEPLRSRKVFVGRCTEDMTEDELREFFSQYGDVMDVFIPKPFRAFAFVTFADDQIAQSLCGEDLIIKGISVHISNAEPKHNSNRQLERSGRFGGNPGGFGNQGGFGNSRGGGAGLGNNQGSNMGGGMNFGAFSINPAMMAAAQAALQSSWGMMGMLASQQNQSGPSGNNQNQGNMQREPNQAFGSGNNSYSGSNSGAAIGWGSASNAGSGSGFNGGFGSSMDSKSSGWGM

UUCCCUUUGUCAUCCUAUGCCU (ssRNA) [miR-204-5p]
apparent K (half saturation): 37.7 nM

AAUGGCGCCACUAGGGUUGUG (ssRNA) [miR-652-3p]
apparent K (half saturation): 6.41 nM

UGAGUGUGUGUGUGUGAGUGUGU (ssRNA) [miR-574-5p (ELISA)]
apparent K (half saturation): 2.84 nM
